Several values for one entry are separate records, joined by “and”; a condition that tells them apart may be missing. Equal values may be shown once.
Target: sfpCHIR-AB1, soluble fusion protein of the extracellular region of CHIR-AB1 and human IgG-Fc (chicken)
Experiment: SPR; 90RU of purified sfpCHIR-AB1 immobilised on a CM5 sensor surface; purified IgY-Fc (Fcυ2–4) mutants 25–400 nM flowed over; Biacore 3000; 1:1 binding model

Substance “chicken IgY-Fc (Fcυ2–4) E437H/L440R (domain or fragment)” has a Ka of 1.8e+08 M⁻¹, a koff of 0.0021 s⁻¹ and a kon of 380000 M⁻¹ s⁻¹.

“chicken IgY-Fc (Fcυ2–4) F557R (domain or fragment)” gave a Ka of 7.3e+07 M⁻¹, a koff of 0.013 s⁻¹ and a kon of 920000 M⁻¹ s⁻¹.

Work on “chicken IgY-Fc (Fcυ2–4) H495E (domain or fragment)” yielded a Ka of 1.1e+08 M⁻¹, a koff of 0.0015 s⁻¹ and a kon of 170000 M⁻¹ s⁻¹.

“chicken IgY-Fc (Fcυ2–4) N376D (domain or fragment)” was tested, and the Ka was 2e+08 M⁻¹, the koff was 0.0021 s⁻¹ and the kon was 410000 M⁻¹ s⁻¹.

In the case of “chicken IgY-Fc (Fcυ2–4) R490E (domain or fragment)”, the Ka is reported as 4.5e+08 M⁻¹, the koff is reported as 0.00051 s⁻¹ and the kon is reported as 230000 M⁻¹ s⁻¹.

“chicken IgY-Fc (Fcυ2–4) R496E (domain or fragment)” was tested, and the Ka was 1.8e+08 M⁻¹, the koff was 0.0013 s⁻¹ and the kon was 220000 M⁻¹ s⁻¹.

With “chicken IgY-Fc (Fcυ2–4) R556E (domain or fragment)” the Ka was 9.3e+06 M⁻¹, the koff was 0.0011 s⁻¹ and the kon was 11000 M⁻¹ s⁻¹.

For “chicken IgY-Fc (Fcυ2–4) S346D/C347P/S348R/P349G (domain or fragment)”, the Ka was 9.5e+07 M⁻¹, the koff was 0.0044 s⁻¹ and the kon was 420000 M⁻¹ s⁻¹.

In the case of “chicken IgY-Fc fragment containing heavy chain constant domains 2, 3 and 4 (Fcυ2–4), wild type (domain or fragment)”, the Ka is reported as 2.1e+08 M⁻¹ and 1.4e+08 M⁻¹, the koff is reported as 0.0012 s⁻¹ and 0.0021 s⁻¹ and the kon is reported as 300000 M⁻¹ s⁻¹ and 260000 M⁻¹ s⁻¹.
